From patent publication US20110076723A1, “ANTIBODY-PEPTIDE FUSED SYNERGIBODY” (SAMSUNG ELECTRONICS CO., LTD., priority 2008, published 2011)
Each block holds one molecule with its values, some of them ahead of it.

Key:
[1] = target: T1, recombinant hAng-2 (recombinant protein with His tag attached to human Ang-2; R&D Systems) (human, UniProt O15123 19-496); test: SPR, BIAcore T100; hAng-2 amine-coupled on CM5, antibody 100 to 0.78125 nM
T1 construct: also called angiopoietin-2; ANGPT2
T1 sequence (looked up): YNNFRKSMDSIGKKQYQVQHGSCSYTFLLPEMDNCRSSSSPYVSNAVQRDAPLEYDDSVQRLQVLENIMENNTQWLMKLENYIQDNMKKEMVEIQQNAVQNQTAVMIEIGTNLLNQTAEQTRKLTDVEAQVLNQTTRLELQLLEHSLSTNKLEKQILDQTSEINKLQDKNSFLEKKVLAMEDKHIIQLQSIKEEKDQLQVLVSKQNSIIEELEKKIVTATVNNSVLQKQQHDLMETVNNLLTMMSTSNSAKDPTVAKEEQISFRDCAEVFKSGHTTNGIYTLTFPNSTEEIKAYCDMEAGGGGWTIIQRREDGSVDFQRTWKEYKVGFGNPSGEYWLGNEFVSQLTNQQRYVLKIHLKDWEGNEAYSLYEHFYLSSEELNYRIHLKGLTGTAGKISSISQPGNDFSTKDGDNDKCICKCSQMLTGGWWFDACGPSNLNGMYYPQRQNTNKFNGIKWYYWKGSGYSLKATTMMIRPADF
Protocol: (§1) The SPR method using BIAcore T100 (GE Healthcare) is used to accurately measure the affinity to the Ang-2 antigens. 20 μg/ml recombinant hAng-2 (R&D Systems) is fixed on a sensor chip CM5 (GE Healthcare) using pH4.5 acetate solution and amine coupling kit (GE Healthcare). The antibodies obtained in Section 2 above are diluted to eight different concentrations down to 0.78125 nM by diluting to ½ each time starting from 100 nM. Then the antigen/antibody affinity is measured by causing the antigens to repeatedly bind and disassociate with the antibodies fixed on the sensor chip (using pH2.2 glycine-HCl solution).

[2] = target: T1, recombinant hAng-2 (recombinant protein …); test: competitive ELISA; antibody titrated with 1 nM hAng-2 (His) on coated hTie2-Fc
Protocol: (§2) A competitive ELISA is performed to assess the molecular interaction of the binders. A 96-well MaxiSorp™ flat-bottom plate (Nunc) is coated with hTie2-Fc (R&D Systems), which is a fused protein including the water-soluble extracellular portion of human Tie-2 and Fc of human IgG₁ dissolved in DMEM culture solution containing 50 μg/ml bovine serum albumin (BSA). The concentration of hTie2-Fc used as a coating material is equivalent to 75% of its maximum binding concentration with 1 nM of recombinant hAng-2 (recombinant protein with His tag attached to human Ang-2; R&D Systems). Then the plate is washed five times with Phosphate Buffer Saline (PBS) containing 0.1% Tween-20 and blocked at room temperature for two hours with PBS containing 5% BSA. Each anti-Ang-2 antibodies are diluted from 100 nM by one-fourth each time with PBS containing 1% BSA and 1 nM hAng-2 and adjusted to 6.1 pM for Ang-2:Tie-2 neutralization ELISA. 100 μl of antibody/hAng-2 solutions are placed in each corresponding well and left to react at room temperature for two hours. Then the wells are washed five times with PBS containing 0.1% Tween-20, and the anti-His antibodies (GE Healthcare) are diluted to about 1:3,000 with PBS containing 1% BSA and left to react at room temperature for one hour. Afterwards, 100 μl of goat anti-mouse-IgG-HRP (Pierce) diluted with PBS containing 1% BSA to about 1:10,000 is added to each well of the plate, left to react at room temperature for one hour, and washed with PBS containing 0.1% Tween-20 five times. Lastly, 100 μl of TMB substrate (SIGMA) is added to each well of the plate to induce color reaction, and the reaction is stopped by adding 50 μl of 5N H₂SO₄ solution. The OD₄₅₀ value is read on a plate reader (Molecular Devices).

recombinant hAng-2 = target: T2, recombinant hAng-2 (Homo sapiens, UniProt O15123); test: Affinity to Ang-2 antigen by surface plasmon resonance (BIAcore T100); assay type: binding; conditions: SPR, hAng-2 on CM5 chip
T2 construct: His tag; purchased R&D Systems
T2 sequence (O15123 19-496): T1 sequence (looked up)
Protocol: as §1

[3] = target: T3, recombinant VEGFR-2 protein (water soluble extracellular site of human VEGFR-2 with Fc of human IgG1 connected thereto, R&D Systems) (human), P35968; test: competitive ELISA; peptide titrated with 1 nM VEGFR-2 on coated VEGF 165
T3 chain: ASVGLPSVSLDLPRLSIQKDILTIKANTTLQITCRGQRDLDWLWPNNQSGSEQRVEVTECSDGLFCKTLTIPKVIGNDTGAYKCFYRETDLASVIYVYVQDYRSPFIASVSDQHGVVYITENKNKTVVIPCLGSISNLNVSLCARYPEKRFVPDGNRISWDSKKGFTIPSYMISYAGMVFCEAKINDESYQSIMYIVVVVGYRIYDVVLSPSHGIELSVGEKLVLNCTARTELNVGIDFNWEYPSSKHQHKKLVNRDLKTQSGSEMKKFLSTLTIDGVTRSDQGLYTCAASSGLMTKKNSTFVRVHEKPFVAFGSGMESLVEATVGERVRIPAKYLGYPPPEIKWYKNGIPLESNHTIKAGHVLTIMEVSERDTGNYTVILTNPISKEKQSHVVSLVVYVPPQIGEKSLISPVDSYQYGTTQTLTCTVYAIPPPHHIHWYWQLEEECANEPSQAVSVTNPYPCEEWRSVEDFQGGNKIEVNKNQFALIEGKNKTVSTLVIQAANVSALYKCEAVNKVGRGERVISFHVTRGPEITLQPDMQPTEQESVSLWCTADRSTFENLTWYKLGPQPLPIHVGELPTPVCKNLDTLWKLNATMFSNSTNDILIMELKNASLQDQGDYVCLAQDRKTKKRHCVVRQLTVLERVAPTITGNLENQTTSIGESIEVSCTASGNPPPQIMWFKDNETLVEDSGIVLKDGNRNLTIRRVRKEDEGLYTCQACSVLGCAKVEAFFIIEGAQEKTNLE

[4] = target: T4, recombinant VEGFR-2 protein (water soluble extracellular site of human VEGFR-2 with Fc of human IgG1 … (human, UniProt P35968 20-764)); test: competitive ELISA; synergibody titrated with 1 nM VEGFR-2 on coated VEGF 165
T4 construct: extracellular domain; Bought; not shown: Fc of human IgG1
Protocol: Competitive ELISA is performed using the peptides synthesized above in Section 6A in order to assess the molecular interaction of the binders. […] Then the plate is washed five times with PBS containing 0.1% Tween-20, and blocked at room temperature for two hours with PBS containing 5% BSA. For VEGF:VEGFR-2 neutralization ELISA, each of the peptides synthesized in Section 6A above are diluted to one-fourth each time from 100 nM with PBS containing 1 nM VEGFR-2 and 1% BSA, and adjusted to 6.1 pM. 100 μl of peptide/VEGFR-2 solution is added to each well and the plate is left to react at room temperature for two hours. Subsequently, it is washed five times with PBS containing 0.1% Tween-20, mouse anti-VEGFR-2 antibodies (R&D Systems) is diluted to about 1:3,000 with PBS containing 1% BSA, and left to react at room temperature for one hour. Then 100 μl of goat anti-mouse-IgG-HRP (Pierce) diluted to about 1:10,000 with PBS containing 1% BSA is added to each well of the plate, left to react at room temperature for one hour, and washed five times with PBS containing 0.1% Tween-20. Lastly, 100 μl of TMB substrate (SIGMA) is added to each well of the plate to induce color reaction. The reaction is stopped by adding 50 μl of 5N H₂SO₄ solution, and the OD₄₅₀ value is read on a plate reader (Molecular Devices). Through the foregoing, the IC₅₀ value for the VEGF:VEGFR-2 binding capacity is obtained.
The method in Example 2, Section 6B above is used, except that, in the present example, each fused protein synergibodies are diluted from 100 nM to one-fourth each time with PBS containing 1% BSA and 1nM VEGFR-2 and adjusted to 6.1 pM for VEGF:VEGF-2 neutralization ELISA.

[5] = target: T1, recombinant hAng-2 (recombinant protein …); test: competitive ELISA; synergibody titrated with 1 nM hAng-2 (His) on coated hTie2-Fc
Protocol: as §2
The method described in Example 1, Section 3 above is used, except that, in the present example, each fused protein synergibodies are diluted from 100 nM to one-fourth each time with PBS containing 1% BSA and 1 nM hAng-2 and adjusted to 6.1 pM for Ang-2:Tie-2 neutralization ELISA.

B1: SAITAng-2-2 (antibody, V domains shown)
VH: QVQLQQSGPELVKPGASVKMSCKASGYTFTDYVISWVKQRTGQGLEWIGEIYPGSGSTYYNEKFKGKASLTADKSSNTAYMQLSSLTSADSAVYFCVRSRGDYYAMDYWGQGTSVTVSS
VL: DIQMTQSPSSLSASLGGKVTITCKASQDINNYITWYQHKPGKGPRLLIHYTSTLQPGIPSRFSGSGSGRDYSFSISNLEPEDIATYYCLQYDNLLTFGGGTKLEIK
notes: Mouse monoclonal anti-Ang-2 antibody purified from hybridoma culture
Kd [1]: 1.1 nM
koff [1]: 0.000477 s⁻¹
kon [1]: 433000 M⁻¹ s⁻¹
IC50 [2]: 1.86 nM
Off Rate (recombinant hAng-2): 0.0004769 s⁻¹
On rate (recombinant hAng-2): 433200 M⁻¹ s⁻¹

B2: DTN9VEGFR-2-3 (peptide)
peptide: EAGAYWCKAWGLSPCLVT
modifications: not checked
IC50 [3]: 61.9 nM

B5: Syn-Ang-VEGFR-19 (other)
heavy (part 1 of 2): QVQLQQSGAELARPGASVKLSCKASGYTFTDYYINWAKQRTGQGLEWIGEIYPGSGDTYYNEKFKGKATLTADKSSSTAYMQLSSLTSEDSAVYFCARYGYKGVYFDYWGQSTTLTVSS
heavy (part 2 of 2): TGSGRMCDGSGPPTNCWFT
light: ENVLTQSPAIMAASLGQKVTMTCSASSSVSSSYLHWYQQKSGASPKPLIHRTSNLASGVPARFSGSGSGTSYSLTISSVEAEDDATYYCQQWSGYPFTFGAGTKLELK
notes: Chimeric (human IgG1) SAITAng-2-4 with the peptide at the C-terminus of the heavy chain; also called SAITAng-2-4 x DTN10VEGFR-2-4; not shown: human IgG1 heavy chain constant region with Fc region, from the vector; human light chain constant region, printed as 'constant region of human IgG1'
IC50 [4]: 1.31 nM
IC50 [5]: 1.28 nM

B6: DTN10VEGFR-2-4 (peptide)
peptide: TGSGRMCDGSGPPTNCWFT
modifications: not checked
IC50 [3]: 46.9 nM

B9: SAITAng-2-3 (antibody, V domains shown)
VH: DVQLVESGGGLVQPGGSRKLSCAASGFTFSSFGMHWVRQAPEKGLEWVAYISSDSSTIYYADTVKGRFTISRDNPKNTLFLQMTSLRSEDTAMYYCAREGGYDDYYAMDYWGQGTSVTVSS
VL: DIQMTQSPASQSASLGESVTITCLASQTIGTWLAWYQQKPGKSPQLLIYAATSLADGVPSRFSGSGSGTKFSFKISSLQAEDFVSYYCQQLYSIPLTFGGGTKLEIK
notes: as for B1
Kd [1]: 0.603 nM
koff [1]: 0.000302 s⁻¹
kon [1]: 501000 M⁻¹ s⁻¹
IC50 [2]: 0.822 nM
Off Rate (recombinant hAng-2): 0.0003023 s⁻¹
On rate (recombinant hAng-2): 501200 M⁻¹ s⁻¹

Second part, the molecule after the results:

Kd [1]: 0.931 nM
koff [1]: 0.000477 s⁻¹
kon [1]: 512000 M⁻¹ s⁻¹
IC50 [2]: 1.01 nM
Off Rate (recombinant hAng-2): 0.0004769 s⁻¹
On rate (recombinant hAng-2): 512100 M⁻¹ s⁻¹
B3: SAITAng-2-4 (antibody, V domains shown)
VH: B5 heavy (part 1 of 2)
VL: B5 light
notes: as for B1

IC50 [4]: 1.38 nM
IC50 [5]: 1.35 nM
B4: Syn-Ang-VEGFR-20 (other)
heavy (part 1 of 2): B5 heavy (part 1 of 2)
heavy (part 2 of 2): PGSQGYCHLNMRYQWICDSE
light: B5 light
notes: Chimeric (human IgG1) SAITAng-2-4 with the peptide at the C-terminus of the heavy chain; also called SAITAng-2-4 x DTN11VEGFR-2-5; not shown: human IgG1 heavy chain constant region with Fc region, from the vector; human light chain constant region, printed as 'constant region of human IgG1'

IC50 [3]: 56.7 nM
B7: DTN6VEGFR-2-1 (peptide)
peptide: TGSDDLCYTFPCMHY
modifications: not checked

IC50 [3]: 49.5 nM
B8: DTN8VEGFR-2-2 (peptide)
peptide: EAGKETCGYEWQYCPRP
modifications: not checked

IC50 [3]: 50.7 nM
B10: DTN11VEGFR-2-5 (peptide)
peptide: PGSQGYCHLNMRYQWICDSE
modifications: not checked
